Source: patent US20080206268A1

How the values were obtained:
[1] = molecular target: HLA-B60 on HLA typed EBV-LCLs (human); test: cell-based competition on acid-treated EBV-LCLs against 150 nM fluorescent reference peptide, flow cytometry
[2] = molecular target: HLA-B60 on HLA typed EBV-LCLs (human); test: cell-based competition assay, flow cytometry
[3] = molecular target: HLA-A2 on HLA typed EBV-LCLs (human); test: cell-based competition on acid-treated EBV-LCLs against 150 nM fluorescent reference peptide, flow cytometry; conditions: remark: other sources report otherwise
[4] = molecular target: recombinant HLA-A2.1 protein and b2-microglobulin (human); test: cell-free competition assay on recombinant HLA-A2.1, against HA-1^H peptide [..] as reference; conditions: remark: other sources report otherwise
[5] = molecular target: HLA-B60 on HLA typed EBV-LCLs (human); test: cell-based competition assay, flow cytometry; remark: listed apart in the source
[6] = molecular target: HLA-B60 on HLA typed EBV-LCLs (human); test: cell-based competition on acid-treated EBV-LCLs against 150 nM fluorescent reference peptide, flow cytometry; remark: listed apart in the source
[7] = molecular target: HLA-A3 on HLA typed EBV-LCLs (human); test: as above

KECVLHDDLL
IC50 [1]: 1 µM

KECVLRDDLL [decameric HA-1^R peptide …]
IC50 [2]: 1.6 to 5.3 µM | IC50 [1]: 1.6 µM

KESTLHLVL [HLA-B60 binder-positive control peptide …]
IC50 [1]: 1.1 µM

VLHDDLLEA [HA-1^H peptide …]
IC50 [3]: 6.4 µM

VLRDDLLEA [HA-1^R peptide …]
fold lower binding affinity than the HA-1^H peptide [4]: 10 fold

KECVLHDDL (modifications not checked) [nonameric HA-1^H peptide …]
IC50 [5]: 1.6 to 5.3 µM | IC50 [6]: 5.3 µM

VLHDDLLEAR (modifications not checked)
IC50 [7]: 15.6 µM
